{"source": "paper PMC3040262", "binders": {"B1": {"name": "I-2_(9-164) C85S (domain or fragment)", "chain": "PIKGILKNKTSTTSSMVASAEQPRGNVDEELSKKSQKWDEMNILATYHPADKDYGLMKIDEPSTPYHSMMGDDEDASSDTEATEAMAPDILARKLAAAEGLEPKYRIQEQESSGEEDSDLSPEEREKKRQFEMKRKLHYNEGLNIKLARQLISKDL", "modifications": "not checked"}}, "biological_target": "PP1α_(7-330), His6-tag removed by TEV protease, P62136", "sequence (P62136 7-330)": "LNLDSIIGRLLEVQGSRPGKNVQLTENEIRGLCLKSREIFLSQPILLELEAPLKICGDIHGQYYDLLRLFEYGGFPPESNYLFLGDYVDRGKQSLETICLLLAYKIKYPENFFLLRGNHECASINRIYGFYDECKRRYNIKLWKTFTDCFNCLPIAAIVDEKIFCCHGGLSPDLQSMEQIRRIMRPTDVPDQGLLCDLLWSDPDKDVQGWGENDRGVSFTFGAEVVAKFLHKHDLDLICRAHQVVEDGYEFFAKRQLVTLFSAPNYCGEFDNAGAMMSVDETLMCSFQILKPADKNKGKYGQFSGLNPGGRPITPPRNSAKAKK", "assay": "SEC", "data": [{"binder": "B1", "values": [{"measurement": "stoichiometry N", "result": 1}]}]}
